Entries after “also recorded” stand apart in the source; their conditions may differ.
B1: GPAT: Y. lipolytica glycerol-3-phosphate acyltransferase promoter, SEQ ID NO:164 (nucleic acid, listed as Yarrowia lipolytica)
DNA: CAACTTTTCTTGTCGACCTGAGATACCGAGGTTGCGCAGGGGATCAACTTTTGTGTCTCAGAGGGACCCAAGTGCGTACGGAGAGTACAGTACATACTGTAGCTAACGGTAGCAGGCGAACTACTGGTACATACCTCCCCCGGAATATGTACAGGCATAATGCGTATCTGTGGGACATGTGGTCGTTGCGCCATTATGTAAGCAGCGTGTACTCCTCTGACTGTCCATATGGTTTGCTCCATCTCACCCTCATCGTTTTCATTGTTCACAGGCGGCCACAAAAAAACTGTCTTCTCTCCTTCTCTCTTCGCCTTAGTCTACTCGGACCAGTTTTAGTTTAGCTTGGCGCCACTGGATAAATGAGACCTCAGGCCTTGTGATGAGGAGGTCACTTATGAAGCATGTTAGGAGGTGCTTGTATGGATAGAGAAGCACCCAAAATAATAAGAATAATAATAAAACAGGGGGCGTTGTCATTTCATATCGTGTTTTCACCATCAATACACCTCCAAACAATGCCCTTCATGTGGCCAGCCCCAATATTGTCCTGTAGTTCAACTCTATGCAGCTCGTATCTTATTGAGCAAGTAAAACTCTGTCAGCCGATATTGCCCGACCCGCGACAAGGGTCAACAAGGTGGTGTAAGGCCTTCGCAGAAGTCAAAACTGTGCCAAACAAACATCTAGAGTCTCTTTGGTGTTTCTCGCATATATTTAATCGGCTGTCTTACGTATTTGGCCTCGGTACCGGACTAATTTCGGATCATCCCCAATACGCTTTTTCTTCGCAGCTGTCAACAGTGTCCATGATCTATCCACCTAAATGGGTCATATGAGGCGTATAATTTCGTGGTGCTGATAATAATTCCCATATATTTGACACAAAACTTCCCCCCCTAGACATACATCTCACAATCTCACTTCTTGTGCTTCTGTCACACATCTCCTCCAGCTGACTTCAACTCACACCTCTGCCCCAGTTGGTCTACAGCGGTATAAGGTTTCTCCGCATAGAGGTGCACCACTCCTCCCGATACTTGTTTGTGTGACTTGTGGGTCACGACATATATATCTACACACATTGCGCCACCCTTTGGTTCTTCCAGCACAACAAAAACACGACACGCTAA
modifications: misc_feature: Promoter GPAT
B2: GPM: Y. lipolytica phosphoglycerate mutase promoter, SEQ ID NO:160 (nucleic acid, listed as Yarrowia lipolytica)
DNA: GCCTCTGAATACTTTCAACAAGTTACACCCTTCATTAATTCTCACGTGACACAGATTATTAACGTCTCGTACCAACCACAGATTACGACCCATTCGCAGTCACAGTTCACTAGGGTTTGGGTTGCATCCGTTGAGAGCGGTTTGTTTTTAACCTTCTCCATGTGCTCACTCAGGTTTTGGGTTCAGATCAAATCAAGGCGTGAACCACTTTGTTTGAGGACAAATGTGACACAACCAACCAGTGTCAGGGGCAAGTCCGTGACAAAGGGGAAGATACAATGCAATTACTGACAGTTACAGACTGCCTCGATGCCCTAACCTTGCCCCAAAATAAGACAACTGTCCTCGTTTAAGCGCAACCCTATTCAGCGTCACGTCATAATAGCGTTTGGATAGCACTAGTCTATGAGGAGCGTTTTATGTTGCGGTGAGGGCGATTGGTGCTCATATGGGTTCAATTGAGGTGGCGGAACGAGCTTAGTCTTCAATTGAGGTGCGAGCGACACAATTGGGTGTCACGTGGCCTAATTGACCTCGGGTCGTGGAGTCCCCAGTTATACAGCAACCACGAGGTGCATGGGTAGGAGACGTCACCAGACAATAGGGTTTTTTTTGGACTGGAGAGGGTTGGGCAAAAGCGCTCAACGGGCTGTTTGGGGAGCTGTGGGGGAGGAATTGGCGATATTTGTGAGGTTAACGGCTCCGATTTGCGTGTTTTGTCGCTCCTGCATCTCCCCATACCCATATCTTCCCTCCCCACCTCTTTCCACGATAATTTTACGGATCAGCAATAAGGTTCCTTCTCCTAGTTTCCACGTCCATATATATCTATGCTGCGTCGTCCTTTTCGTGACATCACCAAAACACATACAAAAATG
modifications: misc_feature: Promoter GPM
B3: TEF: Y. lipolytica translation elongation factor EF1-α promoter, SEQ ID NO:166 (nucleic acid, listed as Yarrowia lipolytica)
DNA: GACCGGGTTGGCGGCGTATTTGTGTCCCAAAAAACAGCCCCAATTGCCCCAATTGACCCCAAATTGACCCAGTAGCGGGCCCAACCCCGGCGAGAGCCCCCTTCACCCCACATATCAAACCTCCCCCGGTTCCCACACTTGCCGTTAAGGGCGTAGGGTACTGCAGTCTGGAATCTACGCTTGTTCAGACTTTGTACTAGTTTCTTTGTCTGGCCATCCGGGTAACCCATGCCGGACGCAAAATAGACTACTGAAAATTTTTTTGCTTTGTGGTTGGGACTTTAGCCAAGGGTATAAAAGACCACCGTCCCCGAATTACCTTTCCTCTTCTTTTCTCTCTCTCCTTGTCAACTCACACCCGAAATCGTTAAGCATTTCCTTCTGAGTATAAGAATCATTCAAAGGATCCACTAGTTCTAGAGCGGCCGCTTAAACC
modifications: misc_feature: Promoter TEF

Columns and labels:
Format in all cases: cell-based, Yarrowia lipolytica
[1] = system: β-glucuronidase (GUS) reporter; test: Relative promoter activity rank from comparative GUS reporter studies (histochemical, fluorometric and/or Real Time PCR); parameters: key: a ‘1’ corresponds to the promoter with lowest activity; a ‘7’ corresponds to the promoter with highest activity; conditions: relative to other promoters
Method: The activity of GPM is about the same as TEF, while the activity of GPD, FBA, FBAIN, FBAINm, GPDIN, GPAT, YAT1 and EXP1 are all greater than TEF (activity is quantified in a relative manner in the column titled “Activity Rank”, wherein a ‘1’ corresponds to the promoter with lowest activity, while a ‘7’ corresponds to the promoter with highest activity). […] GUS activity in each expressed construct was measured by histochemical and/or fluorometric assays (Jefferson, R. A. Plant Mol. Biol. Reporter 5:387-405 (1987)) and/or by use of Real Time PCR.

[2] = system: β-glucuronidase (GUS) reporter; test: Comparative analysis of promoters by fluorometric assay of GUS expression
Method: GUS activity was also assayed by fluorometric determination of the production of 4-methylumbelliferone (4-MU) from the corresponding substrate β-glucuronide (Jefferson, R. A. Plant Mol. Biol. Reporter 5:387-405 (1987)).
Yarrowia lipolytica ATCC #76982 strains containing plasmids pY5-30, PYZGDG, PYZGMG, pDMW212 and pDMW214 were grown from single colonies in 3 mL MM (as described above) at 30° C. to an OD600˜1.0. Then, the 3 mL cultures were each added to a 500 mL flask containing 50 mL MM and grown in a shaking incubator at 30° C. for about 24 hrs. The cells were collected by centrifugation, resuspended in Promega Cell Lysis Buffer and lysed using the BIO 101 Biopulverizer system (Vista, Calif.). After centrifugation, the supernatants were removed and kept on ice.
Similarly, Y. lipolytica strain Y2034 containing plasmids pY5-30, pYAT-GUS, pYGPAT-GUS and pDMW214 constructs, respectively, were grown from single colonies in 10 mL SD medium at 30° C. for 48 hrs to an OD600˜5.0. Two mL of each culture was collected for GUS activity assays, as described below, while 5 mL of each culture was switched into HGM.
Specifically, cells from the 5 mL aliquot were collected by centrifugation, washed once with 5 mL of HGM and resuspended in HGM. The cultures in HGM were then grown in a shaking incubator at 30° C. for 24 hrs. Two mL of each HGM culture were collected for the GUS activity assay, while the remaining culture was allowed to grow for an additional 96 hrs before collecting an additional 2 mL of each culture for the assay.
Each 2 mL culture sample in SD medium was resuspended in 1 mL of 0.5× cell culture lysis reagent (Promega). Resuspended cells were mixed with 0.6 mL of glass beads (0.5 mm diameter) in a 2.0 mL screw cap tube with a rubber O-ring. The cells were then homogenized in a Biospec mini beadbeater (Bartlesville, Okla.) at the highest setting for 90 sec. The homogenization mixtures were centrifuged for 2 min at 14,000 rpm in an Eppendof centrifuge to remove cell debris and beads. The supernatant was used for GUS assay and protein determination.
For each fluorometric assay, 100 μl of extract was added to […] of GUS assay buffer (2 mM 4-methylumbelliferyl-β-D-glucuronide (“MUG”) in extraction buffer) or 200 μl of extract was added to 800 μl of GUS assay buffer. The mixtures were placed at 37° C. Aliquots of 100 μl were taken at 0, 30 and 60 min time points and added to 900 μl of stop buffer (1 M Na2CO3). Each time point was read using a CytoFluor Series 4000 Fluorescence Multi-Well Plate Reader (PerSeptive Biosystems, Framingham, Mass.) set to an excitation wavelength of 360 nm and an emission wavelength of 455 nm. Total protein concentration of each sample was determined using 10 μl of extract and 200 μl of BioRad Bradford reagent or 20 μl of extract and 980 μl of BioRad Bradford reagent (Bradford, M. M. Anal. Biochem. 72:248-254 (1976)). GUS activity was expressed as nmoles of 4-MU per minute per mg of protein.

[3] = system: β-glucuronidase (GUS) reporter; test: Comparative analysis of promoters by histochemical analysis of GUS expression
Method: Comparative studies investigating the promoter activities of the TEF, GPD, GPDIN, GPM, GPAT, FBA, FBAIN and YAT1 promoters were performed, by synthesizing constructs comprising each promoter and the E. coli gene encoding β-glucuronidase (GUS) as a reporter gene (Jefferson, R. A. Nature. 14(342):837-838 (1989)). Then, GUS activity was measured by histochemical and fluorometric assays (Jefferson, R. A. Plant Mol. Biol. Reporter 5:387-405 (1987)) and/or by using Real Time PCR for mRNA quantitation.
Yarrowia lipolytica ATCC #76982 strains containing plasmids pY5-30, pYZGDG, pYZGMG, pDMW212 and pDMW214 were grown from single colonies in 3 mL MM at 30° C. to an OD600˜1.0. Then, 100 μl of cells were collected by centrifugation, resuspended in 100 μl of histochemical staining buffer, and incubated at 30° C. Staining buffer was prepared by dissolving 5 mg of 5-bromo-4-chloro-3-indolyl glucuronide (X-Gluc) in 50 μl dimethyl formamide, followed by the addition of 5 mL 50 mM NaPO4, pH 7.0.
In a separate experiment, Y. lipolytica Y2034 strains containing plasmids pY5-30, pYGPAT-GUS, pYAT-GUS and pDMW214 were grown from single colonies in 5 mL SD media at 30° C. for 24 hrs to an OD600˜8.0. Then, 1 mL of cells were collected by centrifugation. The remaining cultures were centrifuged and washed 2× with HGM, resuspended in 5 mL each of HGM and allowed to grow at 30° C. further. After 24 and 120 hrs, ˜0.25 mL of each culture were centrifuged to collect the cells. Cell samples were resuspended individually in 100 μl of histochemical staining buffer (supra). Zymolase 20T (5 μl of 1 mg/mL; ICN Biomedicals, Costa Mesa, Calif.) was added to each, and the mixture incubated at 30° C. […]

[4] = ATCC #76982 strains, MM, FIG. 5B

Molecule | Activity “Rank” [1] | GUS activity ([2]; strain Y2034, 24 hr, HGM) | GUS activity ([2]; strain Y2034, 48 hr, SD) | GUS activity ([2]; strain Y2034, 120 hr HGM) | reduction of promoter activity ([2]; switched from SD medium into HGM for 24 hrs) [%] | promoter activity by histochemical staining ([3]; strain Y2034, 24 hr in SD medium, FIG. 5C) | promoter activity by histochemical staining [3, 4] | increase of promoter activity ([2]; switched from SD medium into HGM and grown for 24 hrs) [fold]
B1 | 5 | 2.969 nmoles of 4-MU per minute per mg of protein | 5.252 nmoles of 4-MU per minute per mg of protein | 3.050 nmoles of 4-MU per minute per mg of protein | 40 | active; also recorded: much stronger than the TEF promoter | – | –
B2 | 1 | – | – | – | – | – | active | –
B3 | 1 | 0.942 nmoles of 4-MU per minute per mg of protein | 0.401 nmoles of 4-MU per minute per mg of protein | 0.466 nmoles of 4-MU per minute per mg of protein | – | – | active | 2.3
